Test results published in article PMC3762824.

Key:
[1] = target: Argonaute 2 (human (endogenous in U937, U1, J1.1, HEK293T)) (UniProt Q9UKV8)
[2] = target: Argonaute 2 (human (endogenous in U937, U1, J1.1, HEK293T)) (UniProt Q9UKV8); remark: listed apart in the source

Chain of UniProt Q9UKV8 (Q9UKV8 whole entry): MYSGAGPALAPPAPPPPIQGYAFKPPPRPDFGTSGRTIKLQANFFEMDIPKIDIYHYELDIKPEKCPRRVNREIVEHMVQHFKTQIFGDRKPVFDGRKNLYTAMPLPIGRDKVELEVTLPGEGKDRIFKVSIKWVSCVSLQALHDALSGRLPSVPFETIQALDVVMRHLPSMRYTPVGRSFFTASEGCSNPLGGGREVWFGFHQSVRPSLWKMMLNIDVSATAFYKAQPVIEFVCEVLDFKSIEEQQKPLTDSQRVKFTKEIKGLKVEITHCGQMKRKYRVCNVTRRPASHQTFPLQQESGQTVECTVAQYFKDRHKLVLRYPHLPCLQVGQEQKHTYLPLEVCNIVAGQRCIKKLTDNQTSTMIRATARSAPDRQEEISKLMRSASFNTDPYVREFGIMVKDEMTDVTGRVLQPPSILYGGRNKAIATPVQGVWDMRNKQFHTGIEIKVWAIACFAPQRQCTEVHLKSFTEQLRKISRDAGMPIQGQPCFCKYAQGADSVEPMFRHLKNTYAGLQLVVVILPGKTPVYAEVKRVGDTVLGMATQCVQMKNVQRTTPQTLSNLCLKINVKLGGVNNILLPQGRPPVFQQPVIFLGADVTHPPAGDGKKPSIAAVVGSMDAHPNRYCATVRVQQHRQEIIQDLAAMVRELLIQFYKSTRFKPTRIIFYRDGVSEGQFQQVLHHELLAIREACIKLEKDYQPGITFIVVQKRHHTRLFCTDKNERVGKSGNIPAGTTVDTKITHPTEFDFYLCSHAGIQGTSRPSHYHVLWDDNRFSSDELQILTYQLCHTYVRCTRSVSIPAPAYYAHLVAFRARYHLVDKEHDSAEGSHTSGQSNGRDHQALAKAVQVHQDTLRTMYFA

Row | Substance | slicer assay: cleavage of 32P-labelled let-7a RNA by Ago2 immunoprecipitates from U937/Nef-EYFP cells compared to U937/EYFP cells [1] [%] | RLuc-let7a reporter luciferase activity against the empty vector, U937 or HEK293T cells co-transfected with the Nef expression vector [2] [%]
1 | Nef-EYFP fusion protein (natural protein) | < 50 | –
2 | wild type Nef (natural protein) | – | 70
